Biological target: T1, pkd2_human PKD2 (UniProt Q13563)
T1 sequence: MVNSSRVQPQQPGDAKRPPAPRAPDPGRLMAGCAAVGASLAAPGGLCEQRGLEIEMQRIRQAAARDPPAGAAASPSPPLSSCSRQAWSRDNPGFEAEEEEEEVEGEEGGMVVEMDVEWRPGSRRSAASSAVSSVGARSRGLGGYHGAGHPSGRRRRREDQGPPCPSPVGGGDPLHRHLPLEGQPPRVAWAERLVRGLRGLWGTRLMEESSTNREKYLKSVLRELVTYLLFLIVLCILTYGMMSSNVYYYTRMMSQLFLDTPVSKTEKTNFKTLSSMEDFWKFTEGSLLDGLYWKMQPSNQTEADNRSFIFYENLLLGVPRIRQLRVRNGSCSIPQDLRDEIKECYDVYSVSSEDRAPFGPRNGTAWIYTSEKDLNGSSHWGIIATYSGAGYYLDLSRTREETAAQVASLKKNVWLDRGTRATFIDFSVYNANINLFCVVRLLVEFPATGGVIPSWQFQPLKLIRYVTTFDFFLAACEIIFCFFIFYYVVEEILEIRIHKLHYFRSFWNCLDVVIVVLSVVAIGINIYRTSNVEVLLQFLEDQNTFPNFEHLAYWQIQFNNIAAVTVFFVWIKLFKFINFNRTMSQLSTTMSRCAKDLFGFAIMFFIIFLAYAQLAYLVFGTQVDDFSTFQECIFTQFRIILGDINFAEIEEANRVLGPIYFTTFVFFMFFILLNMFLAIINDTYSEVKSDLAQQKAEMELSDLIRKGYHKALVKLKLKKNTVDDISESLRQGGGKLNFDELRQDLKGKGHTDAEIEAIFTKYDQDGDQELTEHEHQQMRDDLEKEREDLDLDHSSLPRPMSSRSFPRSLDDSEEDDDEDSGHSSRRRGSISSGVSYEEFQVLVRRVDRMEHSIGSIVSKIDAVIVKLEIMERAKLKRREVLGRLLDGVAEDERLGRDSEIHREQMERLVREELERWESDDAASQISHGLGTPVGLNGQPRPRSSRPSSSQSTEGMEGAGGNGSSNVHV

- effect of a mutation on the interaction: disrupting interaction
Substance: Polycystin-1 (Homo sapiens) (from UniProt P98161) Q4225P

Reference: IntAct's records for PubMed 20168298
